For the assay, the target named is SpnA (S. pyogenes nuclease A), recombinant, residues Val25 to Leu876 (S. pyogenes) (UniProt Q9A0J7). The assay can be described thus: SPR; Biacore T100; SpnA immobilized on a CM5 chip by amino coupling (7247 resonance units); IdeS injected at 10, 20, 40, 80 and 160 μM, 10 μl/min; 100 mM Hepes, 150 mM NaCl, 0.05% surfactant P20, pH 7.4; 1:1 Langmuir binding model. In general terms: In SPR one partner is held on a chip, and binding of the other changes the refractive index at the surface.

Take “IdeS (immunoglobulin G-degrading enzyme of Streptococcus pyogenes) (from UniProt Q7DAM2 1-339)”: the Kd (in general, the equilibrium constant for the complex coming apart) was determined as 53.3 µM.

The values above are taken from paper PMC10654033.
